Experimental data: publication PMC12256852, “Reversible tuning of membrane sterol levels by cyclodextrin in a dialysis setting” (Biophysical Journal, 2025)

Biological target: the molecule itself
Test: FRET or BRET; same proteoliposomes after cholesterol delivery by dialysis against cholesterol-loaded mβCD (up to 24 h); protein-to-lipid ratio 1:16,000; 30°C; relative FRET efficiency

B1: MBP-Ire1^(P501-K570, C552S) with a C-terminal cysteine (domain or fragment, Saccharomyces cerevisiae)
chain: PEDLEAYRKKIHEQISRELDEKNQNSLLLKFGSLVYRIIETGVFLLLFLIFSAILQRFKILPPLYVLLSKC
modifications: C-terminal cysteine modified by maleimide chemistry with ATTO514 (FRET donor), ATTO594 (FRET acceptor) or NEM (unlabeled)
notes: Ire1 from Saccharomyces cerevisiae, residues P501 to K570: the entire transmembrane region with the amphipathic helix and the short transmembrane helix; endogenous cysteine 552 replaced by serine; single cysteine introduced at the C-terminal end of the construct for labeling; Donor-labeled (ATTO514) and acceptor-labeled (ATTO594) copies of the same construct were co-reconstituted; also called …
- binding result: binds
